Laboratory results: the supplement of paper PMC7125110
± gives the standard error. Fewer inactive variants are shown than the library holds.

B1: glmS ribozyme (parent)
chain: AUAAAAGCGCCAGAACUACAGAAAUGUAGUUGACGAGGAGGAGGUUUAUCGAAUUUUCGGCGGAUGCCUCCAAA

Legend:
Conditions in all cases: with glucosamine-6-phosphate
glucosamine-6-phosphate [1] = variants of: B1; test: self-cleavage kobs at 40 uM GlcN6P; higher = faster cleavage; RNA array
How it was run: (§1)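 Ribozyme variants carrying barcodes were transcribed in situ on sequenced MiSeq chips by E. coli RNA polymerase and tracked at 37 °C with a hybridised Cy3 probe. They were exposed to 40 μM to 10 mM glucosamine-6-phosphate in HEPES/KCl/Mg(OAc)2 buffer. kobs came from exponential decay fits of normalised per-tile medians, and kcat and KM from weighted Michaelis–Menten fits.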

glucosamine-6-phosphate [2] = variants of: B1; test: self-cleavage kobs at 640 uM GlcN6P; higher = faster cleavage; RNA array
How it was run: as §1

glucosamine-6-phosphate [3] = variants of: B1; test: self-cleavage kobs at 2500 uM GlcN6P; higher = faster cleavage; RNA array
How it was run: as §1

glucosamine-6-phosphate [4] = variants of: B1; test: self-cleavage kobs at 10000 uM GlcN6P; higher = faster cleavage; RNA array
How it was run: as §1

glucosamine-6-phosphate [5] = variants of: B1; test: self-cleavage kobs at 160 uM GlcN6P; higher = faster cleavage; RNA array
How it was run: as §1

| Variant | self-cleavage kobs at 40 uM GlcN6P (glucosamine-6-phosphate [1]) [s⁻¹] | self-cleavage kobs at 640 uM GlcN6P (glucosamine-6-phosphate [2]) [s⁻¹] | self-cleavage kobs at 2500 uM GlcN6P (glucosamine-6-phosphate [3]) [s⁻¹] | self-cleavage kobs at 10000 uM GlcN6P (glucosamine-6-phosphate [4]) [s⁻¹] | self-cleavage kobs at 160 uM GlcN6P (glucosamine-6-phosphate [5]) [s⁻¹] |
| --- | --- | --- | --- | --- | --- |
| AUAAAAGCGCCAGAACUACAGAAAUGUAGUUGAGGAGGAGGAGCUUUAUCGAAUUUUCGGCGGAUGCCUCCAAA | < 1e-05 | < 1e-05 | < 1e-05 | < 1e-05 |  |
| AUAAAAGCGCCAGAACUACAGAAAUGUAGUUGAUGAGGAGGAGGUUUAUCGCAUUUUCGGCGGAUGCCUCCAAA | < 1e-05 | < 1e-05 | < 1e-05 | < 1e-05 | < 1e-05 |
| AUAAAAGCGCCAGAACUACAGAAAUGUAGUUGAUGAGGAGUAGGUUUAUCGAAUUUUCGGCUGAUGCCUCCAAA | < 1e-05 |  |  |  |  |
| AUAAAAGCGCCAGAACUACAGAAAUGUAGUUGAUGAGGAGGAGGUUUAUCGAAUUUUCGGCGGAUGCGUCCAAA | 0.000563 ± 0.00025 | 0.00228 ± 0.0011 |  | 0.000463 ± 0.00015 |  |
| AUAAAAGCGCCAGAACUACAGAAAUGUAGUUGAUGCGGAGGAGGUUUAUCGAAUUUUAGGCGGAUGCCUCCAAA | < 1e-05 |  |  |  |  |
| AUAAAAGCGCCAGAACUACAGAAAUGUAGUUGAUGAGGAGGGGGUUUAUCGAAUUUUCGGCGGAUGCCUCCAAA | < 1e-05 |  |  | < 1e-05 | < 1e-05 |
| AUAAAAGCGCCAGAACUACAGAAAUGUAGUUGAGGAGGAGGAGGUUUAUCGAAUUUGCGGCGGAUGCCUCCAAA | < 1e-05 | < 1e-05 |  | < 1e-05 | < 1e-05 |
| AUAAAAGCGCCAGAACUACAGAAAUGUAGUUGAGGAGGAGGAGGUUUAUCGAAUCUUCGGCGGAUGCCUCCAAA | < 1e-05 | < 1e-05 | < 1e-05 | < 1e-05 | < 1e-05 |
| AUAAAAGCGCCAGAACUACAGAAAUGUAGUUGAGGAGGAGGAGGUUUAUGGAAUUUUCGGCGGAUGCAUUCAAA | 8.07e-05 ± 2.3e-05 |  | 0.000366 ± 0.00013 | 5.45e-05 ± 1.1e-05 |  |
| AUAAAAGCGCCAGAACUACAGAAAUGUAGUUGAGGAGGAGUAGGUUUAUCGAAUUUUUGGCGGAUGCCUCCAAA | < 1e-05 |  |  | < 1e-05 |  |
| AUAAAAGCGCCAGAACUACAGAAAUGUAGUUGAUGAGGAGGAGGUUUAUCGAGUUUUCGGCGGAUGCGUCCAAA | 7.28e-05 ± 3.2e-05 |  |  | 0.000655 ± 0.00017 |  |
| AUAAAAGCGCCAGAACUACAGAAAUGUAGUUGAGGAUGCGGAGGUUUAUCGAUUUUUCGGCGGAUGCCUCCAAA | < 1e-05 |  |  |  |  |
| AUAAAAGCGCCAGAACUACAGAAAUGUAGUUGAUGAGGAGGAGGUUUAUCGAAUUUUCCGCGGAUGCCUCGAAA | < 1e-05 |  |  | < 1e-05 |  |
| AUAAAAGCGCCAGAACUACAGAAAUGUAGUUGAGGAGGAGGAGGUUUAUAGAGUUUUCGGCGGAUGCCUCCAAA | < 1e-05 |  |  |  |  |
| AUAAAAGCGCCAGAACUACAGAAAUGUAGUUGAUGAGCAGGAGGUUUAUCGAAUUUUCGGCGGAUGCCUCCAAA | < 1e-05 | < 1e-05 |  | < 1e-05 | < 1e-05 |
| AUAAAAGCGCCAGAACUACAGAAAUGUAGUUGAGGAGGAGGAGGUUUAUCGACUUUUCGGCGGAUGCCUCCAAA | < 1e-05 | < 1e-05 | < 1e-05 | < 1e-05 | < 1e-05 |
| AUAAAAGCGCCAGAACUACAGAAAUGUAGUUGAGGAGGAGGAGAUUUAUCGAAUUUUCGCCGGAUGCCUCCAAA | < 1e-05 |  | < 1e-05 | < 1e-05 |  |
| AUAAAAGCGCCAGAACUACAGAAAUGUAGUUGAUGAGGACGAGGUUUAUCGAAUUUUCGGCGGAUGCCUCCAAA | < 1e-05 | < 1e-05 |  | < 1e-05 |  |
| AUAAAAGCGCCAGAACUACAGAAAUGUAGUUGAUGUGGAGGAGGUUUAUCGAAUUUUCGGCGGAUACCUCCAAA | < 1e-05 |  |  | < 1e-05 |  |
| AUAAAAGCGCCAGAACUACAGAAAUGUAGUUGAGGAGGAGUAGGUUUAGCGCAUUUUCGGCGGCUGCCUCCAAA | < 1e-05 |  |  |  |  |
| AUAAAAGCGCCAGAACUACAGAAAUGUAGUUGAUGAGGAGGAGGUUUAUCGGAUUUUCGGCGGAUGCGUCCAAA | 0.000541 ± 0.00018 |  |  | 0.000197 ± 6e-05 |  |
| AUAAAAGCGCCAGAACUACAGAAAUGUAGUUGAGGAGGAUGAGGUUUAUCGAAUUUUCGGCGCAUGCUUCCAAA | < 1e-05 |  |  | < 1e-05 |  |
| AUAAAAGCGCCAGAACUACAGAAAUGUAGUUGAUGAGCAGGAGGUUUAUCGAAUUUUCGGCGGAUGUCUCCAAA | < 1e-05 |  |  | < 1e-05 |  |
| AUAAAAGCGCCAGAACUACAGAAAUGUAGUUGAGGAGGAGGAGGUUUAUCGAAUUUUCAUCGGAUGCCUCCAAA | < 1e-05 | < 1e-05 |  | < 1e-05 | < 1e-05 |
| AUAAAAGCGCCAGAACUACAGAAAUGUAGUUGAGGAGGAGGAGGUUUAUCGACUUUUCGGCGGAUGCCACCAAA | < 1e-05 |  |  | < 1e-05 |  |
| AUAAAAGCGCCAGAACUACAGAAAUGUAGUUGAGGACGAGGAGGUUUAUCGAAUUUUCGGUGGAAGCCUCCAAA | < 1e-05 |  |  | < 1e-05 |  |
| AUAAAAGCGCCAGAACUACAGAAAUGUAGUUGAUGAGGAGGAGGUUUAUCGAAUUUUCGGCCGAUGCCUCCAAA | < 1e-05 | < 1e-05 | < 1e-05 | < 1e-05 | < 1e-05 |
| AUAAAAGCGCCAGAACUACAGAAAUGUAGUUGAGGAGUACGAGGUUUAUCGAAUUUUCGGCGGAUGCAUCCAAA | < 1e-05 |  |  | < 1e-05 |  |
